Laboratory results as given in PMC3496993.

Target: α2β1 integrin on K562 cells transfected with the α2 integrin subunit (not stated | human (endogenous in K562)) (UniProt P17301)
Chain of UniProt P17301 (P17301 30-1181, chain 1 of 2): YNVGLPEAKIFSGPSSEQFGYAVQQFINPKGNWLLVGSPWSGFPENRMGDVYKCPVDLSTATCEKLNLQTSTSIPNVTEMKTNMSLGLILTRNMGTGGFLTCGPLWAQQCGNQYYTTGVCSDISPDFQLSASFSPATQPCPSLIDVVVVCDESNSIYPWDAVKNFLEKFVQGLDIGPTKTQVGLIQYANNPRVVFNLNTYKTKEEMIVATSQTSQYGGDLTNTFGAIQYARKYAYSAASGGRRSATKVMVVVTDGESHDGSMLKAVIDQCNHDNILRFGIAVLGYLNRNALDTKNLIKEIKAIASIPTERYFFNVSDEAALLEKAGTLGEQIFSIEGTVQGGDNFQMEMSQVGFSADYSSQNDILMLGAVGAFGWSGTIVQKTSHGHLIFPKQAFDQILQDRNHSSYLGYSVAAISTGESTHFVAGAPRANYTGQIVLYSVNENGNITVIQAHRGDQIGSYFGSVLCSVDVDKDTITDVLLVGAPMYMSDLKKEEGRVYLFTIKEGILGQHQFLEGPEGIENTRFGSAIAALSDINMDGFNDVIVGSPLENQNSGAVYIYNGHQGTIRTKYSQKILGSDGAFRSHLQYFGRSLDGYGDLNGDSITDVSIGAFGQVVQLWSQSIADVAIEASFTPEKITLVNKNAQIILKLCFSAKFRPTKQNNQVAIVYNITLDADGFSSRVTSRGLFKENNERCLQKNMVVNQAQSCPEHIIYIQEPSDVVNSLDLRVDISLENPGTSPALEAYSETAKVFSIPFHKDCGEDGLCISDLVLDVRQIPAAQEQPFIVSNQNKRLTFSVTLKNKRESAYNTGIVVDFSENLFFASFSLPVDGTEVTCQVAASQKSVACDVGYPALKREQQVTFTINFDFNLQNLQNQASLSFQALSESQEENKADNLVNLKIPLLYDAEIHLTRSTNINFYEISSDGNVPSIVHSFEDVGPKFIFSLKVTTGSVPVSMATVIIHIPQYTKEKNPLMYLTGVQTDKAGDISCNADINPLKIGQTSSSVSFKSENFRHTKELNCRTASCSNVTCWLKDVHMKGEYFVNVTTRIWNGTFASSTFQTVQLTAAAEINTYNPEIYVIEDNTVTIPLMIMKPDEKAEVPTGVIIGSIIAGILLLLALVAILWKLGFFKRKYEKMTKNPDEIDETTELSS
Chain of UniProt P17301 (P05556 21-798, chain 2 of 2, further chain): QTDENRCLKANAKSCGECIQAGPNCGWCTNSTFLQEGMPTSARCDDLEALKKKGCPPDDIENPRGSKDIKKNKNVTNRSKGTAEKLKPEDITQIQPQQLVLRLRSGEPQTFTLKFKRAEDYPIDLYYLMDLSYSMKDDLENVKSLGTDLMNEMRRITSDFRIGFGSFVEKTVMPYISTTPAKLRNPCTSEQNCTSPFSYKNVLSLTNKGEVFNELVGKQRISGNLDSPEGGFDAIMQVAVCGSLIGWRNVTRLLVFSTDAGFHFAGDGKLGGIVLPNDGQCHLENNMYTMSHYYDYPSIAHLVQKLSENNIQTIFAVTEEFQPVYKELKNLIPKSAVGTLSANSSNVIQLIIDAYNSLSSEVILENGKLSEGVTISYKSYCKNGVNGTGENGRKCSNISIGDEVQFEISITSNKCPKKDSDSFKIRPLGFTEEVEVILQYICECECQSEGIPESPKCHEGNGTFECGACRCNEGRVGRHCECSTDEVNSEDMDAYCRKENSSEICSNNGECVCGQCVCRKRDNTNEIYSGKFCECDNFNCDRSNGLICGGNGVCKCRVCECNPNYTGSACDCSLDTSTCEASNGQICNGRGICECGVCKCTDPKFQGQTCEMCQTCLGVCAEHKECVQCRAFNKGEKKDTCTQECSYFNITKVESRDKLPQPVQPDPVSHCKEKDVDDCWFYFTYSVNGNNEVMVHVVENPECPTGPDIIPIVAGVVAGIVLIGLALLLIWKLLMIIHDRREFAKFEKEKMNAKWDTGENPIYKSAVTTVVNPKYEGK

Q: For “Vixapatin (VP12), C-type lectin-like protein from Vipera xantina palestinae venom (complex)”, which IC50 of inhibition of adhesion of α2K562 transfectants to immobilised collagen I (blocks collagen I with α2β1), dose-response of Vixapatin is on record?
A: 3.2 nM
